Measured values published in patent CN107042098A.

Legend:
[1] = molecular target: Myc-GST融合蛋白 (Myc标签与谷胱甘肽融合的蛋白); test: indirect ELISA, Myc-GST coated at 5 μg/mL, HRP anti-His secondary; heat test at 70℃
[2] = molecular target: Myc-GST融合蛋白 (Myc标签与谷胱甘肽融合的蛋白); test: indirect ELISA, Myc-GST coated at 5 μg/mL, HRP anti-His secondary; heat test at 80℃
[3] = molecular target: Myc-GST融合蛋白 (Myc标签与谷胱甘肽融合的蛋白); test: indirect ELISA, Myc-GST coated at 5 μg/mL, HRP anti-His secondary; heat test at 90℃

OD450 [1]: 1.4 OD450 | OD450 [2]: 1.2 OD450 | OD450 [3]: 1.1 OD450
B1: 抗c-Myc标签单域重链抗体 (anti-c-Myc tag single-domain heavy-chain antibody, SEQ ID NO.:1) (VHH, not shown: small tags and cut ends)
VHH: QLQLVESGGGLVQAGGSLRLSCAVSGFTFSANAMSWVRQAPGKGPEWVSSINRGGASAEYADSVKGRFTISRDDAKNTLYLQMNSLKPEDTALYYCARGNYRGSYFNGPRTYWGRGTQVTVSP
